Laboratory results as given in patent US20210261648A1 (published 2021).

Columns and labels:
[1] = molecular target: T1, FcγRIIb (human, UniProt P31994 43-217); test: SPR (Biacore); parent = IL6R-B3/IL6R-L
T1 construct: extracellular domain; also called FcgRIIb; CD32B
T1 sequence (looked up): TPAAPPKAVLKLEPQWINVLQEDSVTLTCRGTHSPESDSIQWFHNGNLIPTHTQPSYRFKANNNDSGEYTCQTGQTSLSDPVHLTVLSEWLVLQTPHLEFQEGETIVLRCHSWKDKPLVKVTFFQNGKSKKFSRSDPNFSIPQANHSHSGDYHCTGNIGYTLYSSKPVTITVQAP

[2] = molecular target: T2, FcγRIIa type R (human, UniProt P12318 34-217); test: SPR (Biacore); parent = IL6R-B3/IL6R-L
T2 chain: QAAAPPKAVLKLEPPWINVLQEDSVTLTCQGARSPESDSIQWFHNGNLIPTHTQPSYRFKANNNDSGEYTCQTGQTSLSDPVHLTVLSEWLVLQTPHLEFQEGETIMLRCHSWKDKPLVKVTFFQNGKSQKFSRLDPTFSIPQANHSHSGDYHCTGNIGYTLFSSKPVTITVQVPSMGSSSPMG

[3] = molecular target: T3, FcγRIa (human, UniProt P12314 16-292); test: SPR (Biacore), captured antibody, soluble FcγR
T3 construct: Whole entry named; also called FcgRIa; CD64A
T3 sequence (P12314 16-292): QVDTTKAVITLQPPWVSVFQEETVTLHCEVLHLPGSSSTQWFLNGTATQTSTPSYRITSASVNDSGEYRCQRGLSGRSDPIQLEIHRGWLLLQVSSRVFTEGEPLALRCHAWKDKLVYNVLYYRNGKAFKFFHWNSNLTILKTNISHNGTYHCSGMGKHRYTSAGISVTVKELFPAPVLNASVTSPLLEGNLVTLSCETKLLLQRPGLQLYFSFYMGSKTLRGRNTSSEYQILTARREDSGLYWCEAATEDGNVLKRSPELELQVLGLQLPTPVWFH

[4] = molecular target: T4, FcγRIIa type H (human, UniProt P12318 34-217); test: SPR (Biacore), captured antibody, soluble FcγR
T4 construct: extracellular domain; also called FcγRIIaH; FcgRIIaH
T4 sequence (looked up): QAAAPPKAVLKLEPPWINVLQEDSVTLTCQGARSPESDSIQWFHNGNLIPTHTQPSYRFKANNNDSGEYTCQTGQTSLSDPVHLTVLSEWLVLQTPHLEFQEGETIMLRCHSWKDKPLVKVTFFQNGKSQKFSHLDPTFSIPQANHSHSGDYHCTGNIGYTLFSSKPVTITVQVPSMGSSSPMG

[5] = molecular target: T1, FcγRIIb; test: SPR (Biacore), captured antibody, soluble FcγR
[6] = molecular target: T2, FcγRIIa type R; test: SPR (Biacore), captured antibody, soluble FcγR

| Binder | KD(IIb) of the parent polypeptide/KD(IIb) of the altered polypeptide [1] [fold] | KD(IIaR) of the parent polypeptide/KD(IIaR) of the altered polypeptide [2] [fold] | Kd [3] [nM] | Kd [4] [nM] | Kd [5] [nM] | Kd [6] [nM] |
| --- | --- | --- | --- | --- | --- | --- |
| IL6R-BP487/IL6R-L (antibody, human IgG1, kappa, Alterations in EU numbering, introduced into IL6R-B3) heavy: QVQLQESGPGLVKPSETLSLTCAVSGHSISHDHAWSWVRQPPGEGLEWIGFISYSGITNYNPSLQGRVTISRDNSKNTLYLQMNSLRAEDTAVYYCARSLARTTAMDYWGEGTLVTVSSASTKGPSVFPLAPSSKSTSGGTAALGCLVKDYFPEPVTVSWNSGALTSGVHTFPAVLQSSGLYSLSSVVTVPSSSLGTQTYICNVNHKPSNTKVDKKVEPKSCDKTHTCPPCPAPDLLGDDSVFLFPPKPKDTLMISRTPEVTCVVIDVAEEDGEVKFNWYVDGVEVHNAKTKPREEQYNSTYRVVSVLTVLHQDWLNGKEYKCKVSNKALPRPIEKTISKAKGQPREPQVYTLPPSRDELTKNQVSLTCLVKGFYPSDIAVEWESNGQPENNYKTTPMVLDSDGSFFLYSKLTVDKSRWQQGNVFSCSVMHEALHNHYTQESLSLSP light: not shown | 2700 | 28.3 | 1.2 | 840 | 1.2 | 39 |
| IL6R-BP497/IL6R-L (antibody, human IgG1, kappa, Alterations in EU numbering, introduced into IL6R-B3) heavy: QVQLQESGPGLVKPSETLSLTCAVSGHSISHDHAWSWVRQPPGEGLEWIGFISYSGITNYNPSLQGRVTISRDNSKNTLYLQMNSLRAEDTAVYYCARSLARTTAMDYWGEGTLVTVSSASTKGPSVFPLAPSSKSTSGGTAALGCLVKDYFPEPVTVSWNSGALTSGVHTFPAVLQSSGLYSLSSVVTVPSSSLGTQTYICNVNHKPSNTKVDKKVEPKSCDKTHTCPPCPAPDLLGDDSVFLFPPKPKDTLMISRTPEVTCVVIDVAEEDGEVKFNWYVDGVEVHNAKTKPREEQYNSTYRVVSVLTVLHQDWLNGKEYKCKVSNKGLPRPIEKTISKAKGQPREPQVYTLPPSRDELTKNQVSLTCLVKGFYPSDIAVEWESNGQPENNYKTTPPVLDSDGSFFLYSKLTVDKSRWQQGNVFSCSVMHEALHNHYTQESLSLSP light: not shown | 764 | 12.9 | 2.1 | 960 | 4.1 | 85 |
| IL6R-BP496/IL6R-L (antibody, human IgG1, kappa, Alterations in EU numbering, introduced into IL6R-B3) heavy: QVQLQESGPGLVKPSETLSLTCAVSGHSISHDHAWSWVRQPPGEGLEWIGFISYSGITNYNPSLQGRVTISRDNSKNTLYLQMNSLRAEDTAVYYCARSLARTTAMDYWGEGTLVTVSSASTKGPSVFPLAPSSKSTSGGTAALGCLVKDYFPEPVTVSWNSGALTSGVHTFPAVLQSSGLYSLSSVVTVPSSSLGTQTYICNVNHKPSNTKVDKKVEPKSCDKTHTCPPCPAPDLLGDDSVFLFPPKPKDTLMISRTPEVTCVVIDVAEEDGEVKFNWYVDGVEVHNAKTKPREEQDNSTYRVVSVLTVLHQDWLNGKEYKCKVSNKALPAPIEKTISKAKGQPREPQVYTLPPSRDELTKNQVSLTCLVKGFYPSDIAVEWESNGQPENNYKTTPPVLDSDGSFFLYSKLTVDKSRWQQGNVFSCSVMHEALHNHYTQESLSLSP light: not shown | 168 | 2.3 | 1.2 | 3700 | 18 | 470 |
| IL6R-BP488/IL6R-L (antibody, human IgG1, kappa, Alterations in EU numbering, introduced into IL6R-B3) heavy: QVQLQESGPGLVKPSETLSLTCAVSGHSISHDHAWSWVRQPPGEGLEWIGFISYSGITNYNPSLQGRVTISRDNSKNTLYLQMNSLRAEDTAVYYCARSLARTTAMDYWGEGTLVTVSSASTKGPSVFPLAPSSKSTSGGTAALGCLVKDYFPEPVTVSWNSGALTSGVHTFPAVLQSSGLYSLSSVVTVPSSSLGTQTYICNVNHKPSNTKVDKKVEPKSCDKTHTCPPCPAPDLLGDDSVFLFPPKPKDTLMISRTPEVTCVVIDVAEEDGEVKFNWYVDGVEVHNAKTKPREEQDNSTYRVVSVLTVLHQDWLNGKEYKCKVSNKALPRPIEKTISKAKGQPREPQVYTLPPSRDELTKNQVSLTCLVKGFYPSDIAVEWESNGQPENNYKTTPPVLDSDGSFFLYSKLTVDKSRWQQGNVFSCSVMHEALHNHYTQESLSLSP light: not shown | 1680 | 14.8 | 2.2 | 1600 | 1.9 | 74 |
| IL6R-BP491/IL6R-L (antibody, human IgG1, kappa, Alterations in EU numbering, introduced into IL6R-B3) heavy: QVQLQESGPGLVKPSETLSLTCAVSGHSISHDHAWSWVRQPPGEGLEWIGFISYSGITNYNPSLQGRVTISRDNSKNTLYLQMNSLRAEDTAVYYCARSLARTTAMDYWGEGTLVTVSSASTKGPSVFPLAPSSKSTSGGTAALGCLVKDYFPEPVTVSWNSGALTSGVHTFPAVLQSSGLYSLSSVVTVPSSSLGTQTYICNVNHKPSNTKVDKKVEPKSCDKTHTCPPCPAPELLGDDSVFLFPPKPKDTLMISRTPEVTCVVIDVAEEDGEVKFNWYVDGVEVHNAKTKPREEQDNSTYRVVSVLTVLHQDWLNGKEYKCKVSNKALPRPIEKTISKAKGQPREPQVYTLPPSRDELTKNQVSLTCLVKGFYPSDIAVEWESNGQPENNYKTTPPVLDSDGSFFLYSKLTVDKSRWQQGNVFSCSVMHEALHNHYTQESLSLSP light: not shown | 1020 | 9.3 | 5.3 | 2200 | 3 | 120 |
| IL6R-BP489/IL6R-L (antibody, human IgG1, kappa, Alterations in EU numbering, introduced into IL6R-B3) heavy: QVQLQESGPGLVKPSETLSLTCAVSGHSISHDHAWSWVRQPPGEGLEWIGFISYSGITNYNPSLQGRVTISRDNSKNTLYLQMNSLRAEDTAVYYCARSLARTTAMDYWGEGTLVTVSSASTKGPSVFPLAPSSKSTSGGTAALGCLVKDYFPEPVTVSWNSGALTSGVHTFPAVLQSSGLYSLSSVVTVPSSSLGTQTYICNVNHKPSNTKVDKKVEPKSCDKTHTCPPCPAPDLLGDDSVFLFPPKPKDTLMISRTPEVTCVVIDVAEEDGEVKFNWYVDGVEVHNAKTKPREEQDNSTYRVVSVLTVLHQDWLNGKEYKCKVSNKALPRPIEKTISKAKGQPREPQVYTLPPSRDELTKNQVSLTCLVKGFYPSDIAVEWESNGQPENNYKTTPMVLDSDGSFFLYSKLTVDKSRWQQGNVFSCSVMHEALHNHYTQESLSLSP light: not shown | 3100 | 25.7 | 1.3 | 870 | 1 | 43 |

The next lines start with the values.

| KD(IIb) of the parent polypeptide/KD(IIb) of the altered polypeptide [1] [fold] | KD(IIaR) of the parent polypeptide/KD(IIaR) of the altered polypeptide [2] [fold] | Kd [3] [nM] | Kd [4] [nM] | Kd [5] [nM] | Kd [6] [nM] | Binder |
| --- | --- | --- | --- | --- | --- | --- |
| – | – | 8 | 2300 | – | 150 | IL6R-BP554/IL6R-L (antibody, human IgG1, kappa, Alterations in EU numbering, introduced into IL6R-B3) heavy: QVQLQESGPGLVKPSETLSLTCAVSGHSISHDHAWSWVRQPPGEGLEWIGFISYSGITNYNPSLQGRVTISRDNSKNTLYLQMNSLRAEDTAVYYCARSLARTTAMDYWGEGTLVTVSSASTKGPSVFPLAPSSKSTSGGTAALGCLVKDYFPEPVTVSWNSGALTSGVHTFPAVLQSSGLYSLSSVVTVPSSSLGTQTYICNVNHKPSNTKVDKKVEPKSCDKTHTCPPCPAPELLGDDSVFLFPPKPKDTLMISRTPEVTCVVIDVAEEDGDVKFNWYVDGVEVHNAKTKPREEQYNSTYRVVSVLTVLHQDWLNGKEYKCKVSNKALPRPIEKTISKAKGQPREPQVYTLPPSRDELTKNQVSLTCLVKGFYPSDIAVEWESNGQPENNYKTTPPVLDSDGSFFLYSKLTVDKSRWQQGNVFSCSVMHEALHNHYTQESLSLSP light: not shown |
| 1880 | 21.7 | 1.3 | 930 | 1.7 | 51 | IL6R-BP498/IL6R-L (antibody, human IgG1, kappa, Alterations in EU numbering, introduced into IL6R-B3) heavy: QVQLQESGPGLVKPSETLSLTCAVSGHSISHDHAWSWVRQPPGEGLEWIGFISYSGITNYNPSLQGRVTISRDNSKNTLYLQMNSLRAEDTAVYYCARSLARTTAMDYWGEGTLVTVSSASTKGPSVFPLAPSSKSTSGGTAALGCLVKDYFPEPVTVSWNSGALTSGVHTFPAVLQSSGLYSLSSVVTVPSSSLGTQTYICNVNHKPSNTKVDKKVEPKSCDKTHTCPPCPAPDLLGDDSVFLFPPKPKDTLMISRTPEVTCVVIDVAEEDGEVKFNWYVDGVEVHNAKTKPREEQYNSTYRVVSVLTVLHQDWLNGKEYKCKVSNKALPRPIEKTISKAKGQPREPQVYTLPPSRDELTKNQVSLTCLVKGFYPSDIAVEWESNGQPENNYKTTPLVLDSDGSFFLYSKLTVDKSRWQQGNVFSCSVMHEALHNHYTQESLSLSP light: not shown |
| – | – | – | 4900 | 9 | 330 | IL6R-BP558/IL6R-L (antibody, human IgG1, kappa, Alterations in EU numbering, introduced into IL6R-B3) heavy: QVQLQESGPGLVKPSETLSLTCAVSGHSISHDHAWSWVRQPPGEGLEWIGFISYSGITNYNPSLQGRVTISRDNSKNTLYLQMNSLRAEDTAVYYCARSLARTTAMDYWGEGTLVTVSSASTKGPSVFPLAPSSKSTSGGTAALGCLVKDYFPEPVTVSWNSGALTSGVHTFPAVLQSSGLYSLSSVVTVPSSSLGTQTYICNVNHKPSNTKVDKKVEPKSCDKTHTCPPCPAPELLGDDSVFLFPPKPKDTLMISRTPEVTCVVIDVGEEDGDVKFNWYVDGVEVHNAKTKPREEQYNSTYRVVSVLTVLHQDWLNGKEYKCKVSNKALPRPIEKTISKAKGQPREPQVYTLPPSRDELTKNQVSLTCLVKGFYPSDIAVEWESNGQPENNYKTTPPVLDSDGSFFLYSKLTVDKSRWQQGNVFSCSVMHEALHNHYTQESLSLSP light: not shown |
